Experimental data taken from US20050079613A1, “Downregulation of cell surface glycoproteins by a family of human ubiquitin ligases” (Oregon Health & Science University, priority 2002, published 2005).

Experiments:
[1] = tested on: HLA-A2.1; assay: Surface expression of co-transfected HLA-A2.1 constructs on HeLa cells, flow cytometry; type: cell-based, human
Procedure: Flow cytometry. Cells were removed from tissue culture dishes with 0.05% Trypsin-EDTA (Invitrogen), washed with ice-cold PBS, and incubated with appropriate antibody for 30 minutes at 4° C. The cells were washed with ice-cold PBS and either resuspended in ice-cold PBS or incubated with PE-conjugated anti-mouse secondary antibody (DAKO) and washed again before analysis with a BD Biosciences (San Jose, Calif.) FACScalibur flow cytometer.
The ability to downregulate MHC I is common to KSHV-K3, KSHV-K5, MHV68-K3 and MV-M153R (Coscoy and Ganem, 2000, supra; Guerin et al., 2002, supra; Ishido et al., 2000b supra; Stevenson et al., 2000, supra). Additional substrates are ICAM-1 and B7.2 (but not B7.1) for KSHV-K5, as well as CD95 and CD4 for M153R (Coscoy and Ganem, 2001, supra; Guerin et al., 2002, supra; Ishido et al., 2000a, supra; Mansouri et al., 2003, supra). Since only low copy numbers were detected in HeLa cells for transcripts corresponding to each of the MARCH-proteins (FIG. 7C, and data not shown), HeLa cells were transfected with expression plasmids for MARCH-I, II, III, IV, V and VIII. Surface expression of selected glycoproteins was monitored upon transfection. The following known substrates for viral K3-family members were tested: Fas (CD95) and HLA class I (MHC I), both of which are endogenously expressed in HeLa cells, as well as transfected HLA-A2.1 or CD4. […] Surface expression of the respective markers was analyzed by flow cytometry. GFP was used to identify transfected cells.
The most likely targets for ubiquitination on transmembrane glycoproteins are lysines in the cytoplasmic tail. To examine the role of lysines for MHC I and CD4 downregulation by MARCH-IV, a panel of constructs derived from the human MHC I molecule HLA-A2.1 and a lysine-deleted version of CD4 (Mansouri et al., 2003, supra) were used. In addition to MARCH-IV, MARCH-VIII was included in this analysis since it reduced HLA-A2.1 surface expression (FIG. 10A). […] To rule out the possibility that these mutations changed the target molecules in such a way that they are no longer recognized by MARCH-IV or VIII, a lysine residue into a HA-tag at the carboxyterminal end of HLA-A2.1 was introduced.

[2] = tested on: ubiquitin; assay: In vitro ubiquitination assay with GST-fused RING-CH (PHD) domains, E1, E2 panel, anti-ubiquitin immunoblot; type: biochemical; conditions: E2 = UbCH2
Procedure: Ubiquitination assay. UbCH2 and UbCH3 were obtained from Boston Biochem. (His)6-UbCH5a and GST fusion proteins were expressed in BL21-DE3 cells (Stratagene) and BL21 cells (Amersham), respectively, and purified as previously described (Boutell, C., S. Sadis and R. D. Everett, J. Virol. 76:841-850, 2002; Tiwari, S. and A. M. Weissman, J. Biol. Chem. 276:16193-16200, 2001). Purified E3 proteins were stored at 4° C., and E2 proteins were stored at −80° C. In vitro reaction mixtures (20 μl total) included: 50 nM rabbit E1 (Boston Biochem), 28 μM Ubiquitin, 5 mM ATP, 50 mM Tris-HCl pH 7.5, 50 mM NaCl, and 2 mM DTT. E2 enzymes were used at concentrations varying from 0.1 to 2.3 μM, and E3 concentrations ranged from 3 to 30 μM. After 90 minutes of incubation at 30° C., reactions were stopped by boiling in SDS sample buffer. Samples were electrophoresed through 12% polyacrylamide SDS gels and blotted using anti-ubiquitin mouse antibody, P4D1 (Santa Cruz Biotech).
In vitro reaction mixtures (20 μl total) included: 50 nM rabbit E1 (Boston Biochem), 28 μM Ubiquitin, 10 mM ATP, 50 mM Tris-HCl pH 7.5, 50 mM NaCl, and 2 mM DTT. E2 enzymes were used at concentrations varying from 0.7 to 2.3 μM, and E3 concentrations ranged from 3 to 25 μM. After 90 minutes of incubation at 30° C., reactions were stopped by addition of 4×reducing sample buffer. Samples were electrophoresed through 12% SDS gels and blotted using anti-ubiquitin mouse antibody (Santa Cruz Biotech).
To examine if the RING-CH domains of MARCH-I and MARCH-II would act as ubiquitin ligases in vitro, DNA fragments encoding the amino-terminal RING-CH-domain of both proteins were fused to Glutathione-S-transferase. The resulting constructs were sequence confirmed and expression of GST-MARCH protein verified by immunoblot. The GST-fusion protein was expressed and purified from E. coli cultures using Glutathione-columns. The ICP0-RING-domain was also purified, in parallel with the MARCH-I and MARCH-II constructs. A panel of E2 enzymes was either purchased from commercial sources or purified either by nickel-chelate chromatography or on glutathione columns. All E2-enzymes formed mercapto-ethanol-sensisitve complexes with ubiquitin thus showing ubiquitin conjugating activity. Purified ubiquitin and E1 was obtained from commercial sources.
To examine if the RING-CH domains of MARCH proteins act as ubiquitin ligases in vitro, a DNA fragment encoding the amino-terminal RING-CH-domains of MARCH-I, II, IV and VIII were fused to Glutathione-S-transferase (GST) for bacterial expression. The GST-fusion proteins were purified from E. coli cultures using Glutathione-sepharose-columns. Approximately thirty E2 proteins are found in the human genome compared to only one E1 enzyme (Pickart, 2001, supra). […] The specificity and selectivity of E3s with respect to E2s, however, is not well characterized. To cover a spectrum of E2s, a panel of E2 enzymes (Mansouri et al., 2003, supra) was acquired. The various E2 enzymes were incubated with or without the RING-CH-GST fusions in the presence of ubiquitin, ATP, E1. The formation of multiubiquitin-adducts was examined by immunoblotting with antibodies against ubiquitin.

[3] = tested on: MHC I; assay: MHC I uptake assay in HeLa cells; type: cell-based, human; conditions: transfected HeLa cells, 37° C. for 120 minutes
Procedure: Uptake Assay. Uptake of MHC I was measured as previously described (Ishido et al., 2000b, supra). In short, HeLa cells were transfected with MARCH-IV. Twenty four hours post-transfection cells were washed and an anti-MHC I antibody allowed to bind at 4° C. Cells were then either fixed immediately or transferred to 37° C. for 120 minutes to allow uptake of antibody bound glycoproteins. Antibody bound to glycoprotein was visualized using an Alexaflour:594-conjugated secondary antibody.
The observed downregulation of MHC I and CD4 by MARCH-IV permitted the study of the molecular mechanism by which MARCH-proteins reduce glycoprotein levels. […] The only known exception is MHV68-K3 which mediates proteasomal degradation of MHC I prior to its exit from the ER (Boname and Stevenson, 2001, supra). To study if MHC I was internalized by MARCH-IV, the recycling of MHC I in MARCH-IV transfected and non-transfected cells over the course of 2 hours was compared. MHC I on MARCH-IV transfected or non-transfected cells was labeled with anti-MHC I antibody at 4° C.

B1: MARCH-IV: human membrane-associated RING-CH ubiquitin ligase, SEQ ID NOS:45 and 57; construct used lacks the first 63 amino-acids (protein)
chain: WYCYGLCAPAPQMLRHQGLLKCRCRMLFNDLKVFLLRRPPQAPLPMHGDPQPPGLAANNTLPALGAGGWAGWRGPREVVGREPPPVPPPPPLPPSSVEDDWGGPATEPPASLLSSASSDDFCKEKTEDRYSLGSSLDSGMRTPLCRICFQGPEQGELLSPCRCDGSVKCTHQPCLIKWISERGCWSCELCYYKYHVIAISTKNPLQWQAISLTVIEKVQVAAAILGSLFLIASISWLIWSTFSPSARWQRQDLLFQICYGMYGFMDVVCIGLIIHEGPSVYRIFKRWQAVNQQWKVLNYDKTKDLEDQKAGGRTNPRTSSSTQANIPSSEEETAGTPAPEQGPAQAAGHPSGPLSHHHCAYTILHILSHLRPHEQRSPPGSSRELVMRVTTV
- downregulation of HLA-A2.1 with a lysine re-introduced into the C-terminal HA-tag ([1]; HeLa cells): restored downregulation
- surface expression of transfected HLA-A2.1 ([1]; HeLa cells co-transfected with HLA-A2.1 and MARCH plasmid): reduced the surface expression
- downregulation of HLA-A2.1 with lysines removed from the tail ([1]; HeLa cells, lysine-less HLA-A2.1 construct): resistant
- ubiquitin ligase activity with UbCH2 [2]: mostly active
- internalization (uptake) of antibody-labeled MHC I [3]: rapid internalization
